For test [1], the system named is ΔG/SEAP/HCV E1E2. The test can be described thus: Effects of FGF family members on infectivity of pseudotyped HCV to HepG2 cells (SEAP reporter). The format is cell-based. To be noted: for IC50 ΔG/SEAP/HCV E1E2: growth factor added 1 hour before virus, SEAP in supernatant after 24 hours; for infection of ΔG/SEAP/HCV E1E2: result in words.
The test system of test [2] is ΔG/SEAP/HCV E1E2. In words: Effects of solubilized FGFR-1 to FGFR-4 (FGFR/Fc) on infectivity of pseudotyped HCV to HepG2 cells. The format is cell-based. To be noted: FGFR/Fc mixed with virus 1 hour before inoculation, FIG. 5.

We go through eight molecules from patent US20080125362A1, “Method of screening compound preventing cells from infection with Hepatitis C virus (HCV)” (Japan Tobacco Inc., priority 2004, published 2008).

Take “human FGF 20: human-derived fibroblast growth factor 20, commercial product of Pepro Tech”: the “IC50 ΔG/SEAP/HCV E1E2” value in the test with ΔG/SEAP/HCV E1E2 [1] is more than 10 µg/mL.
Same read-out and setting: then “human FGF 18: human-derived fibroblast growth factor 18, commercial product of Pepro Tech”, with more than 10 µg/mL.
Take FGFR-4: the “infectivity of ΔG/SEAP/HCV E1E2” value in the test on ΔG/SEAP/HCV E1E2 [2] is recorded as “inhibited”.
With “human FGF 2 (basic): human-derived fibroblast growth factor 2 (basic), commercial product of Pepro Tech”, in the test on ΔG/SEAP/HCV E1E2 [1], the “IC50 ΔG/SEAP/HCV E1E2” value stood at 1.36 µg/mL and the “infection of ΔG/SEAP/HCV E1E2” value is on record as “inhibited”.

B1: human FGF 17: human-derived fibroblast growth factor 17, commercial product of Pepro Tech (protein)
chain: TQGENHPSPNFNQYVRDQGAMTDQLSRRQIREYQLYSRTSGKHVQVTGRRISATAEDGNKFAKLIVETDTFGSRVRIKGAESEKYICMNKRGKLIGKPSGKSKDCVFTEIVLENNYTAFQNARHEGWFMAFTRQGRPRQASRSRQNQREAHFIKRLYQGQLPFPNHAEKQKQFEFVGSAPTRRTKRTRRPQPLT
Turning to B1, in the test with ΔG/SEAP/HCV E1E2 [1], the “IC50 ΔG/SEAP/HCV E1E2” value is 7.41 µg/mL and the “infection of ΔG/SEAP/HCV E1E2” value is on record as “inhibited”.

B2: human FGF 7 (KGF): human-derived fibroblast growth factor 7 (KGF), commercial product of Pepro Tech (protein)
chain: CNDMTPEQMATNVNCSSPERHTRSYDYMEGGDIRVRRLFCRTQWYLRIDKRGKVKGTQEMKNNYNIMEIRTVAVGIVAIKGVESEFYLAMNKEGKLYAKKECNEDCNFKELILENHYNTYASAKWTHNGGEMFVALNQKGIPVRGKKTKKEQKTAHFLPMAIT
For the molecule B2, in the test with ΔG/SEAP/HCV E1E2 [1], the “IC50 ΔG/SEAP/HCV E1E2” value worked out at 2.32 µg/mL and the “infection of ΔG/SEAP/HCV E1E2” value was “inhibited”.

B3: human FGF 8: human-derived fibroblast growth factor 8, commercial product of Pepro Tech (protein)
chain: QVTVQSSPNFTQHVREQSLVTDQLSRRLIRTYQLYSRTSGKHVQVLANKRINAMAEDGDPFAKLIVETDTFGSRVRVRGAETGLYICMNKKGKLIAKSNGKGKDCVFTEIVLENNYTALQNAKYEGWYMAFTRKGRPRKGSKTRQHQREVHFMKRLPRGHHTTEQSLRFEFLNYPPFTRSLRGSQRTWAPEPR
Take B3: in the test on ΔG/SEAP/HCV E1E2 [1], the “IC50 ΔG/SEAP/HCV E1E2” value was determined as 8.51 µg/mL and the “infection of ΔG/SEAP/HCV E1E2” value was “inhibited”.

B4: human FGF 10: human-derived fibroblast growth factor 10, commercial product of Pepro Tech (protein)
chain: LGQDMVSPEATNSSSSSFSSPSSAGRHVRSYNHLQGDVRWRKLFSFTKYFLKIEKNGKVSGTKKENCPYSILEITSVEIGVVAVKAINSNYYLAMNKKGKLYGSKEFNNDCKLKERIEENGYNTYASFNWQHNGRQMYVALNGKGAPRRGQKTRRKNTSAHFLPMVVHS
Regarding B4, in the test with ΔG/SEAP/HCV E1E2 [1], the “IC50 ΔG/SEAP/HCV E1E2” value is more than 10 µg/mL.
